In publication PMC5921052 one finds other data, which are given here for 1 substance.

In this experiment the target is Hsp90 yeast homologue (Hsc82) (yeast) (UniProt P15108).
UniProt P15108, sequence (P15108 whole entry): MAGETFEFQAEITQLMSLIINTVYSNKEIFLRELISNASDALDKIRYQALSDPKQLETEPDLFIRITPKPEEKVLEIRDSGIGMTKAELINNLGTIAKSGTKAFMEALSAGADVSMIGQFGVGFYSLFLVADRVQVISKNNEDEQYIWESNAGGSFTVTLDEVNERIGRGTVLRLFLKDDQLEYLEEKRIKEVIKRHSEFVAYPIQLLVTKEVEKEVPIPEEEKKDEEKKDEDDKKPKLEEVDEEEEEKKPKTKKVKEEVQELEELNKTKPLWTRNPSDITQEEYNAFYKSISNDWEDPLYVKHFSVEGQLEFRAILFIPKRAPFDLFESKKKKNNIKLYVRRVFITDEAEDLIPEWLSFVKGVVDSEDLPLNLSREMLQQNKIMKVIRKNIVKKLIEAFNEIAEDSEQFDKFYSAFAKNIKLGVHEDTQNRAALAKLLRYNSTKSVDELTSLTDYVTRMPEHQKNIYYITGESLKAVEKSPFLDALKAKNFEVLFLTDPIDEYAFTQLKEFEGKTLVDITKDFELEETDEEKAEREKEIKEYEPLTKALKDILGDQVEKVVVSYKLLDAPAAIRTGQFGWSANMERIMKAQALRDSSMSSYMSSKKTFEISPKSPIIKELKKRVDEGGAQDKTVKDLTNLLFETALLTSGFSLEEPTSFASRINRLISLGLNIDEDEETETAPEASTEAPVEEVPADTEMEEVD

Substance “model client protein Δ131Δ (domain or fragment)” yielded an other of 1.8 fold.
